This assay has as its target biotinylated SARS-CoV-2 S1 variant B.1.351 (Example 5) (SARS-CoV-2) (UniProt P0DTC2). Kind of assay: phage ELISA screening. In general terms: In an ELISA, binding on a coated surface is turned into a signal by an enzyme label.

B1: 11-4 (antibody, V domains shown)
VH: QVQLVESGGGVVQPGRSLRLSCAASGFTFDNYAMHWVRQAPGKGLEWVAVISDDGRNKYYADSVKGRFTISRDNSKNTLYLQMNSLRAEDTAVYYCAKDNYYDSSGYYGGGMDVWGQGTLVTVSS
VL: EIVLTQSPATLSLSPGERATLSCRASQSVGSYLAWYQQKPGQAPRLLIYDAVNRATGIPARFSGSGSGTDFTLTISSLEPEDFAVYYCQQRFTWPTTFGGGTKVEIK
On to B1, for which the ELISA came to 16.3.

B2: 11-10 (antibody, V domains shown)
VH: QVQLVESGGGVVQPGRSLRLSCAASGFIFNNYGMHWVRQAPGKGLEWVAVISYDGSNIYYADSVKGRFTISRDNSKNTLYLQMNSLRAEDTAVYYCARDYNDGIGSYTGAFDSWGQGTLVTVSS
VL: EIVLTQSPATLSLSPGERATLSCRASQSVSTSLAWYQQKPGQAPRLLIYDATNRATGIPARFSGSGSGTDFTLTISSLEPEDFAVYYCQQHYSWPLTFGGGTKVEIK
Molecule B2 returned an ELISA of 7.06.

B3: 11-6 (antibody, V domains shown)
VH: QVQLVESGGGVVQPGRSLRLSCAASGFTFGTYAMHWVRQAPGKGLEWVAVVSTEGGTTYYADSVKGRFTISRDNSKNTLYLQMNSLRAEDTAVYYCAGEYYDSSGSSIDYWGQGTLVTVSS
VL: EIVLTQSPATLSLSPGERATLSCRASQSVDSSLAWYQQKPGQAPRLLIYDASNRATGIPARFSGSGSGTDFTLTISSLEPEDFAVYYCQQQSNWPGTFGGGTKVEIK
As for B3, the ELISA worked out at 12.6.

B4: 11-11 (antibody, V domains shown)
VH: QVQLVESGGGVVQPGRSLRLSCAASGFTFDNYAMHWVRQAPGKGLEWVAVISYDGSNKYYADSVKGRFTISRDNSKNTLYLQMNSLRAEDTAVYYCLREGILWDVWGQGTLVTVSS
VL: EIVLTQSPATLSLSPGERATLSCRASHNINNFLAWYQQKPGQAPRLLIYDTSNRATGIPARFSGSGSGTDFTLTISSLEPEDFAVYYCQQGRNWPPSSFGGGTKVEIK
In the case of B4, the ELISA came to 6.43.

B5: 11-2 (antibody, V domains shown)
VH: QVQLVESGGGVVQPGRSLRLSCAASGFTFGTYAMHWVRQAPGKGLEWVAVVSTEGGTTYYADSVKGRFTISRDNSKNTLYLQMNSLRAEDTAVYYCAGSYGAYFDYWGQGTLVTVSS
VL: EIVLTQSPATLSLSPGERATLSCRASQSVNSYLAWYQQKPGQAPRLLIYDVSNRATGIPARFSGSGSGTDFTLTISSLEPEDFAVYYCQQFSNWPTFGGGTKVEIK
In turn, B5 gave an ELISA of 19.4.

B6: 11-9 (antibody, V domains shown)
VH: QVQLVESGGGVVQPGRSLRLSCAASGFTFGTYAMHWVRQAPGKGLEWVAVVSTEGGTTYYADSVKGRFTISRDNSKNTLYLQMNSLRAEDTAVYYCAGSYGAYFDYWGQGTLVTVSS
VL: EIVLTQSPATLSLSPGERATLSCRASQSVSYYLAWYQQKPGQAPRLLIYDSSNRATGIPARFSGSGSGTDFTLTISSLEPEDFAVYYCQQRSNWQGNFGGGTKVEIK
Consider B6, for which the ELISA came out at 9.14.

B7: 11-1 (antibody, V domains shown)
VH: QVQLVESGGGVVQPGRSLRLSCAASGFTFGSYGMHWVRQAPGKGLEWVAVISYDGGDEYYADSVKGRFTISRDNSKNTLYLQMNSLRAEDTAVYYCARDISRYGYYGMDVWGQGTLVTVSS
VL: EIVLTQSPATLSLSPGERATLSCRASQSLGSFLAWYQQKPGQAPRLLIYDASNRATGIPARFSGSGSGTDFTLTISSLEPEDFAVYYCQQRALWPRLTFGGGTKVEIK
B7: the ELISA was 21.7.

B8: 11-3 (antibody, V domains shown)
VH: QVQLVESGGGVVQPGRSLRLSCAASGFTFSNFAMHWVRQAPGKGLEWVAVISYDGNHEYYADSVKGRFTISRDNSKNTLYLQMNSLRAEDTAVYYCAKTNSGSYGGMFDYWGQGTLVTVSS
VL: EIVLTQSPATLSLSPGERATLSCRASQNIGNHLAWYQQKPGQAPRLLIYDASNRATGIPARFSGSGSGTDFTLTISSLEPEDFAVYYCQQRDNGPPEGTFGGGTKVEIK
On to B8, for which the ELISA was determined as 17.3.

For the origin of these results see patent publication US20230192818A1.
